Data: article PMC5832153

Target: FliC-aGFP_ENH_V2 (Salmonella) (UniProt P06179)
Assay: ITC; sfGFP (0.065 mM) injected in 10 μl portions into FliC-aGFP_ENH in the cell; 25 °C; 20 mM Tris-HCl, 150 mM NaCl, pH 8.5; one-binding-site model

Sequence of UniProt P06179 (P06179 whole entry): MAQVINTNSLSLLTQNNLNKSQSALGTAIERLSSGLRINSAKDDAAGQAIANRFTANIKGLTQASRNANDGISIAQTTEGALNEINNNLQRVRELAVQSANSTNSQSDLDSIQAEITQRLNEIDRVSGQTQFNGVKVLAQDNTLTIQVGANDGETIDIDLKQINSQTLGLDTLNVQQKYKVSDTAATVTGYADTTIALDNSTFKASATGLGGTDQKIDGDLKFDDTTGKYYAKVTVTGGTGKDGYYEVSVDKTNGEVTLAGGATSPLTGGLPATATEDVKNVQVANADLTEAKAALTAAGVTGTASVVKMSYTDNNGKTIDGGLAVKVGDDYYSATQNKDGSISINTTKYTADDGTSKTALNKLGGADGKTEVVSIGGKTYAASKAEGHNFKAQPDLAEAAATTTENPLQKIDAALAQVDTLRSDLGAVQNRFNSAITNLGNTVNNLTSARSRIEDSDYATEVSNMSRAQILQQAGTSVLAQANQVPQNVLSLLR

C-terminally His-tagged superfolder GFP (from UniProt P42212 1-238) (natural protein)
Kd: 1.1 nM | dH: -9.3 kcal/mol | stoichiometry N: 0.86
